Patent US20170267730A1 (UNIVERSITY COURT OF THE UNIVERSITY OF EDINBURGH, published 2017)
Changes are numbered by the printed parent chain. Names and notes keep the numbering of the source.

B1: WT-BslA truncated, BslA42-181 (other)
chain: MRTQSTASLFATITGASKTEWSFSDIELTYRPNTLLSLGVMEFTLPSGFTANTKDTLNGNALRTTQILNNGKTVRVPLALDLLGAGEFKLKLNNKTLPAAGTYTFRAENKSLSIGNKFYAEASIDVAKRSTPPTQPCGCN
notes: In solution it is a mix of monomers and disulfide-linked dimers; also called wild-type biofilm-surface layer protein A; YuaB
B2: BslA-L77K truncated (other)
chain: B1 chain with L36K
notes: also called L77K BslA; L77K-BslA

Key:
[1] = molecular target: the molecule itself; experiment: size-exclusion chromatography with multiangle light scattering (self-association in solution, disulfide-linked dimers)
[2] = molecular target: the molecule itself; experiment: TEM, uranyl acetate stain (self-assembly into a 2D lattice)
Excerpt: Multiple domains of the WT-BslA lattice could be observed in any location on the grid. The observed domain areas varied from as small as 1000 nm² (˜50 BslA molecules) up to 200000 nm² (>10000 BslA molecules). Less ordered “inter-domain” areas were also observed. […] The largest BslA-L77K domain size observed was approximately […] (1250 BslA molecules).

| Protein | binding result [1] | binding result [2] |
| --- | --- | --- |
| B1 | binds | – |
| B2 | – | binds |
